PMC12210187

Target: Stenotrophomonas maltophilia EntB (Stenotrophomonas maltophilia K279a)
Test: SEC; analytical size-exclusion chromatography; estimated molecular weight 61.8 kDa

Substance: Stenotrophomonas maltophilia EntB (enzyme)
- stoichiometry N: 2
